{"source": "paper PMC10317887", "about": "“Hypoglycaemia frequency and physiological response after double or triple doses of once-weekly insulin icodec vs once-daily insulin glargine U100 in type 2 diabetes: a randomised crossover trial” (Diabetologia, 2023)", "key": {"[1]": {"test_system": "individuals with type 2 diabetes", "assay": "Cognitive function: four-choice reaction time (4CRT) test", "conditions": "for Change in 4CRT correctness at PG3.0 mmol/l, least-squares mean / Change in 4CRT response time at PG3.0 mmol/l, least-squares mean / Change in 4CRT correctness at PGnadir, least-squares mean / Change in 4CRT response time at PGnadir, least-squares mean: change from baseline, subgroup", "method": "Hypoglycaemic response assessments were conducted at predefined PG levels during hypoglycaemia development and recovery (Fig. 1b). Hypoglycaemic symptoms score (HSS), hypoglycaemia awareness, counterregulatory hormones, vital signs and cognitive function tests were assessed at baseline (PG5.5 mmol/l), during hypoglycaemia development (PG3.9 mmol/l and PG3.0 mmol/l) and at PGnadir.\nCognitive function was assessed using the trail making B (TMB) test, the digit symbol substitution test (DSST) and the four-choice reaction time (4CRT) test. In the TMB test from the Halstead Reitan Neuropsychological Battery [16, 17], the participant connects 25 circles distributed on a chart in the correct sequence as quickly as possible. The circles contain a number (1–13) or a letter (A–L), and the correct sequence consists of alternating numbers and letters (i.e. 1–A–2–B–3 etc). The test result is the time needed to complete the task correctly. In the DSST, which is a subtest of the Wechsler Adult Intelligence Scale - Revised [18], nine digits are represented by nine different symbols. During 90 s, the participant is requested to write down the appropriate symbol for as many numbers as possible in a given array. The test result is the number of correct responses. […] In 100 cycles, the participant responds by pressing the corresponding position on a keypad. The test result has two components: percentage of correct answers and the mean response time.\n(§1) Changes in HSS, vital signs and cognitive function tests from baseline (PG5.5 mmol/l) to PG3.0 mmol/l and to PGnadir were compared between insulin products at each of the two dose levels using the same approach as described for PGnadir, except that no logarithmic transformation was done and that the baseline value was included as a covariate. Least-squares means, treatment difference and 95% CI were derived."}, "[2]": {"test_system": "individuals with type 2 diabetes", "assay": "Vital signs during hypoglycaemia induction", "conditions": "for Change in SBP at PG3.0 mmol/l, least-squares mean / Change in pulse at PG3.0 mmol/l, least-squares mean / Change in DBP at PGnadir, least-squares mean / Change in SBP at PGnadir, least-squares mean / Change in pulse at PGnadir, least-squares mean / Change in DBP at PG3.0 mmol/l, least-squares mean: change from baseline, subgroup", "method": "Hypoglycaemic response assessments were conducted at predefined PG levels during hypoglycaemia development and recovery (Fig. 1b). Hypoglycaemic symptoms score (HSS), hypoglycaemia awareness, counterregulatory hormones, vital signs and cognitive function tests were assessed at baseline (PG5.5 mmol/l), during hypoglycaemia development (PG3.9 mmol/l and PG3.0 mmol/l) and at PGnadir. In addition, counterregulatory hormones and vital signs were assessed during recovery from hypoglycaemia at PG3.0 mmol/l, PG3.9 mmol/l and PG5.5 mmol/l.\nVital signs (diastolic blood pressure, systolic blood pressure and pulse) were measured after ≥5 min of rest in a supine position.\nas §1"}, "[3]": {"conditions": "double dose, n=16 icodec, 15 glargine U100"}, "[4]": {"conditions": "double dose, n=18 icodec, 17 glargine U100"}, "[5]": {"conditions": "triple dose, n=19 icodec, 28 glargine U100"}, "[6]": {"conditions": "triple dose, n=20 icodec, 27 glargine U100"}, "[7]": {"conditions": "double dose, n=17 icodec, 15 glargine U100"}, "[8]": {"conditions": "double dose, n=20 icodec, 19 glargine U100"}, "[9]": {"conditions": "triple dose, n=20 icodec, 28 glargine U100"}, "[10]": {"conditions": "triple dose, n=20 icodec, 29 glargine U100"}}, "data": [{"substance": "insulin icodec", "values": [{"measurement": "Change in 4CRT correctness at PG3.0 mmol/l, treatment difference (95% CI) icodec vs glargine U100", "setting": "[1]; double dose", "result": "0.2 (-1.1, 1.4)"}, {"measurement": "Change in 4CRT correctness at PGnadir, treatment difference (95% CI) icodec vs glargine U100", "setting": "[1]; double dose", "result": "-0.2 (-1.3, 0.9)"}, {"measurement": "Change in 4CRT response time at PG3.0 mmol/l, treatment difference (95% CI) icodec vs glargine U100", "setting": "[1]; double dose", "result": "-79.7 (-170.4, 10.9)"}, {"measurement": "Change in 4CRT response time at PGnadir, treatment difference (95% CI) icodec vs glargine U100", "setting": "[1]; double dose", "result": "-97.1 (-230.5, 36.3)"}, {"measurement": "Change in 4CRT correctness at PG3.0 mmol/l, least-squares mean", "setting": "[1]; [3]", "result": 0.1, "unit": "%-points"}, {"measurement": "Change in 4CRT response time at PG3.0 mmol/l, least-squares mean", "setting": "[1]; [3]", "result": 19.7, "unit": "ms"}, {"measurement": "Change in 4CRT correctness at PGnadir, least-squares mean", "setting": "[1]; [4]", "result": -0.3, "unit": "%-points"}, {"measurement": "Change in 4CRT response time at PGnadir, least-squares mean", "setting": "[1]; [4]", "result": 40.4, "unit": "ms"}, {"measurement": "Change in 4CRT correctness at PG3.0 mmol/l, treatment difference (95% CI) icodec vs glargine U100", "setting": "[1]; triple dose", "result": "0.1 (-0.7, 0.9)"}, {"measurement": "Change in 4CRT correctness at PGnadir, treatment difference (95% CI) icodec vs glargine U100", "setting": "[1]; triple dose", "result": "0.4 (-0.9, 1.7)"}, {"measurement": "Change in 4CRT response time at PG3.0 mmol/l, treatment difference (95% CI) icodec vs glargine U100", "setting": "[1]; triple dose", "result": "11.8 (-44.0, 67.6)"}, {"measurement": "Change in 4CRT response time at PGnadir, treatment difference (95% CI) icodec vs glargine U100", "setting": "[1]; triple dose", "result": "-66.7 (-155.8, 22.4)"}, {"measurement": "Change in 4CRT correctness at PGnadir, least-squares mean", "setting": "[1]; [5]", "result": -0.3, "unit": "%-points"}, {"measurement": "Change in 4CRT response time at PGnadir, least-squares mean", "setting": "[1]; [5]", "result": 21.3, "unit": "ms"}, {"measurement": "Change in 4CRT correctness at PG3.0 mmol/l, least-squares mean", "setting": "[1]; [6]", "result": -0.3, "unit": "%-points"}, {"measurement": "Change in 4CRT response time at PG3.0 mmol/l, least-squares mean", "setting": "[1]; [6]", "result": 55.4, "unit": "ms"}, {"measurement": "Change in DBP at PG3.0 mmol/l, treatment difference (95% CI) icodec vs glargine U100", "setting": "[2]; double dose", "result": "1.7 (-3.1, 6.4)"}, {"measurement": "Change in DBP at PGnadir, treatment difference (95% CI) icodec vs glargine U100", "setting": "[2]; double dose", "result": "0.5 (-4.0, 4.9)"}, {"measurement": "Change in SBP at PG3.0 mmol/l, treatment difference (95% CI) icodec vs glargine U100", "setting": "[2]; double dose", "result": "3.7 (-4.3, 11.7)"}, {"measurement": "Change in SBP at PGnadir, treatment difference (95% CI) icodec vs glargine U100", "setting": "[2]; double dose", "result": "-5.2 (-16.5, 6.1)"}, {"measurement": "Change in pulse at PG3.0 mmol/l, treatment difference (95% CI) icodec vs glargine U100", "setting": "[2]; double dose", "result": "-0.9 (-7.4, 5.7)"}, {"measurement": "Change in pulse at PGnadir, treatment difference (95% CI) icodec vs glargine U100", "setting": "[2]; double dose", "result": "0.2 (-5.0, 5.4)"}, {"measurement": "Change in SBP at PG3.0 mmol/l, least-squares mean", "setting": "[2]; [7]", "result": -4.9, "unit": "mmHg"}, {"measurement": "Change in pulse at PG3.0 mmol/l, least-squares mean", "setting": "[2]; [7]", "result": -1.3, "unit": "beats/min"}, {"measurement": "Change in DBP at PGnadir, least-squares mean", "setting": "[2]; [8]", "result": -5.4, "unit": "mmHg"}, {"measurement": "Change in SBP at PGnadir, least-squares mean", "setting": "[2]; [8]", "result": -7.7, "unit": "mmHg"}, {"measurement": "Change in pulse at PGnadir, least-squares mean", "setting": "[2]; [8]", "result": 1.2, "unit": "beats/min"}, {"measurement": "Change in DBP at PG3.0 mmol/l, least-squares mean", "setting": "[2]; double dose, supine, n=17 icodec, 15 glargine U100", "result": -6.1, "unit": "mmHg"}, {"measurement": "Change in DBP at PG3.0 mmol/l, treatment difference (95% CI) icodec vs glargine U100", "setting": "[2]; triple dose", "result": "0.8 (-3.4, 5.0)"}, {"measurement": "Change in DBP at PGnadir, treatment difference (95% CI) icodec vs glargine U100", "setting": "[2]; triple dose", "result": "3.6 (-0.8, 8.0)"}, {"measurement": "Change in SBP at PG3.0 mmol/l, treatment difference (95% CI) icodec vs glargine U100", "setting": "[2]; triple dose", "result": "0.7 (-6.6, 8.0)"}, {"measurement": "Change in SBP at PGnadir, treatment difference (95% CI) icodec vs glargine U100", "setting": "[2]; triple dose", "result": "3.9 (-2.2, 10.0)"}, {"measurement": "Change in pulse at PG3.0 mmol/l, treatment difference (95% CI) icodec vs glargine U100", "setting": "[2]; triple dose", "result": "0.8 (-4.4, 5.9)"}, {"measurement": "Change in pulse at PGnadir, treatment difference (95% CI) icodec vs glargine U100", "setting": "[2]; triple dose", "result": "0.5 (-4.8, 5.7)"}, {"measurement": "Change in DBP at PG3.0 mmol/l, least-squares mean", "setting": "[2]; [9]", "result": -2.4, "unit": "mmHg"}, {"measurement": "Change in SBP at PG3.0 mmol/l, least-squares mean", "setting": "[2]; [9]", "result": -0.9, "unit": "mmHg"}, {"measurement": "Change in pulse at PG3.0 mmol/l, least-squares mean", "setting": "[2]; [9]", "result": 3.1, "unit": "beats/min"}, {"measurement": "Change in DBP at PGnadir, least-squares mean", "setting": "[2]; [10]", "result": -1.1, "unit": "mmHg"}, {"measurement": "Change in SBP at PGnadir, least-squares mean", "setting": "[2]; [10]", "result": 1.8, "unit": "mmHg"}, {"measurement": "Change in pulse at PGnadir, least-squares mean", "setting": "[2]; [10]", "result": 2.8, "unit": "beats/min"}]}]}
